Laboratory results as given in patent US20180051253.

Molecular target: T1, Nuclear Respiratory Factor 1 (NRF1), Q16656
T1 chain: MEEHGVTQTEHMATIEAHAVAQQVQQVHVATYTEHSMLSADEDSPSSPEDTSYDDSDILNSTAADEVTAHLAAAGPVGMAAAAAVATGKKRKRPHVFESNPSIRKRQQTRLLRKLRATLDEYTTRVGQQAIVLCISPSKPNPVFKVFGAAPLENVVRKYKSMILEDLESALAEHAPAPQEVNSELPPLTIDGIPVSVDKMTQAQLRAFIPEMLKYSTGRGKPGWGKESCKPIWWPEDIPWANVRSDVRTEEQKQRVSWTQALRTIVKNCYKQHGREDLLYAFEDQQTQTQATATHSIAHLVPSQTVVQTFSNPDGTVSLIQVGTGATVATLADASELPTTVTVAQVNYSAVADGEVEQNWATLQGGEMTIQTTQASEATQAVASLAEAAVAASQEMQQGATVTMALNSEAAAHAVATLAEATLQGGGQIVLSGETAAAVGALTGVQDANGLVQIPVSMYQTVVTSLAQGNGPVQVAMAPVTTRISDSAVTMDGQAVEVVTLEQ

B1: endogenous SIRT7 (protein)
chain: MAAGGLSRSERKAAERVRRLREEQQRERLRQVSRILRKAAAERSAEEGRLLAESADLVTELQGRSRRREGLKRRQEEVCDDPEELRGKVRELASAVRNAKYLVVYTGAGISTAASIPDYRGPNGVWTLLQKGRSVSAADLSEAEPTLTHMSITRLHEQKLVQHVVSQNCDGLHLRSGLPRTAISELHGNMYIEVCTSCVPNREYVRVFDVTERTALHRHQTGRTCHKCGTQLRDTIVHFGERGTLGQPLNWEAATEAASRADTILCLGSSLKVLKKYPRLWCMTKPPSRRPKLYIVNLQWTPKDDWAALKLHGKCDDVMRLLMAELGLEIPAYSRWQDPIFSLATPLRAGEEGSHSRKSLCRSREEAPPGDRGAPLSSAPILGGWFGRGCTKRTKRKKVT
With B1 as the protein, how does the “SIRT7 occupancy at gene promoters (ChIP-qPCR) after NRF1 siRNA” value read?
The value was “NRF1 knockdown (KD) using siRNA reduced SIRT7 occupancy at the promoters of mRPs and mTFs, but not RPS20”.
